For test [1], the target named is T1, human coagulation factor XII (human).
T1 construct: coagulation factor XII (serine protease zymogen), human; also called FXII; contact factor XII; source: bought: Haemochrom Diagnostica, Germany
Briefly: MST; NT-647 labeled Gallo2179 kept constant (estimated 50-300 nM); 16-step serial dilution of non-labeled FXII (6.25 μM - 0.19 nM) or HK (4.15 μM - 0.12 nM); Monolith NT.115; three independent measurements. The note with it: both partners purified.

In test [2] the target is T1, human coagulation factor XII. The test is described as follows: SPR; Biacore 3000, CM3 chip, Gallo2179 immobilised (1900 RUs) by amine coupling; FXII as analyte at 12.5 - 200 nM; 25°C, PBS running buffer; 1:1 Langmuir global fit. The note with it: both partners purified. (In general: In SPR one partner is held on a chip, and binding of the other changes the refractive index at the surface.)

B1: Pil1 collagen-binding adhesin Gallo2179 of Streptococcus gallolyticus subsp. gallolyticus UCN34, recombinant (natural protein)
chain: MFYYLGEGIINFRKLFIALVLIIFSFFTVSEVRAADVSNRVTSLTVATTELQDGGRTTVRVEFNDRAGKIHSGDTIEVTWSISNSIYLNGYTKSIPLTIQGVNVGTLEVTEHNAIFKFNSNIETMENVSGWGEFEVIGRNVTNTSSENTGTAVVQVGGYSQNISITKPQSGTGTSSFYYKTGDIQPSDTNRVRWFLLVNNNKEYVESDVTIEDDIQSGQTLDMSSFDITISGYQNKRFVGESALEEFKRSCPNSSIEITQKSEGGHISIRLSRDDVILNTISIHYKTKILDFDQEKFANNSNITYKPLYKDWVTNKESNYEVVNVNANGGVDGSRYTSVTVNKVWNDKDNQDGKRSDKVVIQLLADGQEISGKQLELSEENGWSGTFEKLNKYHSDNTLITYTVKEVTDLPDYQTTVSENSKNNYTITNTHIPEVIDLSGKKIWDDNNNQDGIRPETITVHLLANGVDTGQVKTVSKSDNWEYQFKDLPKYQNGEKVVYTVSEDVVVGYEMSVSGMNLTNTHTPEVTNILISKYWDDNDDKLKKRPESIQITLHANGKEYQTVTLTASNQWQYEFKDLPKYKDGEKIAYTVTEADVPNYQLISIEEDESGNWKITNKVEESYLFPNTGGKGISGYYTVGIVLLLSIGLLFLKKFIGDY
modifications: fluorescent label NT-647 covalently attached by NHS coupling (in the MST only)
By Kd is commonly meant the concentration at which binding is half-saturated. With B1, the Kd was 12.9 nM in test [1] and 14 nM in test [2].

Values taken from PMC5955193, “Streptococcus gallolyticus subsp. gallolyticus endocarditis isolate interferes with coagulation and activates the contact system” (Virulence, 2017).
